Results published in publication PMC13343191, “APE1 binds and processes abasic sites present in i-motif DNA and cooperates with PCBP1 in maintenance of telomeric stability”.

Columns and labels:
APE1 WT = APE1 WT (UniProt P27695 1-318); test: southwestern blot; switchSENSE: MES pH 5.5 (APE1) or 6.5 (iMab); UV-crosslinking: 50 mM Tris-acetate pH 5.5, 50 mM KCl, 1 mM DTT, 0.8% glycerol, 0.4 mM EDTA, 4°C; NMR: 50 mM NaCl, 10 mM MES pH 5.5, 1 mM DTT, 25°C; SMADNE: 25 mM MES pH 5.5, 150 mM NaCl, 0.1 mg/ml BSA, 1 mM DTT, 1 mM Trolox; details: protein: recombinant; tags: GST (Factor Xa cleavable, pGEX-3X) or His/GFP (pTAC-MAT); label: 5' IRDye800 (SWB, UV-crosslinking); i-motif, intramolecular
Chain of APE1 WT (P27695 whole entry): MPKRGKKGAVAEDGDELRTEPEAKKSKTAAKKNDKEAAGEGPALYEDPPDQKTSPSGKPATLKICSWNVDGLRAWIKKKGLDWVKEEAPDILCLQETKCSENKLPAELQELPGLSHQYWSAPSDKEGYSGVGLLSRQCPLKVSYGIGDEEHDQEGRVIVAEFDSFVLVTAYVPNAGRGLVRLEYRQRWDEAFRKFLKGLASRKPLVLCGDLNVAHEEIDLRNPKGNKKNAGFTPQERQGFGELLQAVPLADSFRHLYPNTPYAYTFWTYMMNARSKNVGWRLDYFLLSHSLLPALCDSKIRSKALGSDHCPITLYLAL

APE1 NΔ33 = APE1 NΔ33 (UniProt P27695 34-318, del1-33); test: as above; details: protein: recombinant; tags: GST (Factor Xa cleavable, pGEX-3X) or His/GFP (pTAC-MAT); label: 5' IRDye800 (SWB, UV-crosslinking); i-motif, intramolecular
Chain of APE1 NΔ33 (P27695 34-318, stated change not applied): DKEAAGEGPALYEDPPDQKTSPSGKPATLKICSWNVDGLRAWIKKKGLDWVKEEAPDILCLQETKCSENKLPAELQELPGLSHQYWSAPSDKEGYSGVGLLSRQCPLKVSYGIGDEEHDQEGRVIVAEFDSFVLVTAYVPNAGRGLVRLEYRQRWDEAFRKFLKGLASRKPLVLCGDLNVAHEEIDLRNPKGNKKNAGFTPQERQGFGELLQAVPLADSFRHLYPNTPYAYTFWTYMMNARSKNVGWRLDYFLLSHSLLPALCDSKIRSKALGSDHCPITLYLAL

B1: C-NAT (structured_DNA)
DNA: TAACCCTAACCCTAACCCTAACCCTAA
- binding result (APE1 WT): binds
- binding result (APE1 NΔ33): binds
